Results: the supplement of paper PMC10567573

B1: RSPH3 (parent)
chain: KAASLARNLAKRRRTYLGGAAGRS

Variants of: B1
Test: protein stability index of a GFP-peptide fusion (GPS, HEK-293T) (PSI 1-6); higher = more stable
Details: c terminus: a fixed tail appended
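Further: lentivirally expressed fusions sorted by FACS into six bins by GFP to DsRed ratio, PSI derived from sequencing read proportions per bin multiplied by bin number.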

| Variant | protein stability index |
| --- | --- |
| KAASLARNLAKRRRVYLGGAAGRS [T15V] | 1.91 |
| KAASLARNLAKRRRFYLGGAAGRS [T15F] | 2.31 |
| KAASLARNLAKRRRYYLGGAAGRS [T15Y] | 1.29 |
| KAASLARNLAKRRRHYLGGAAGRS [T15H] | 2.09 |
| KAASLARNLAKRRRDYLGGAAGRS [T15D] | 2.17 |
| KAASLARNLAKRRRMYLGGAAGRS [T15M] | 3.14 |
| KAASLAVNLAKRRRTYLGGAAGRS [R7V] | 1.98 |
| KAASLADNLAKRRRTYLGGAAGRS [R7D] | 3.83 |
| KAASLALNLAKRRRTYLGGAAGRS [R7L] | 2.51 |
| KAASLANNLAKRRRTYLGGAAGRS [R7N] | 3.59 |
| KAASLASNLAKRRRTYLGGAAGRS [R7S] | 2.58 |
| KAASLATNLAKRRRTYLGGAAGRS [R7T] | 2.08 |
| KAASLAENLAKRRRTYLGGAAGRS [R7E] | 4.36 |
| KAASLAGNLAKRRRTYLGGAAGRS [R7G] | 2.54 |
| KAASLARNLTKRRRTYLGGAAGRS [A10T] | 3.17 |
| KAASLARNLVKRRRTYLGGAAGRS [A10V] | 2.43 |
| KAASLARNLCKRRRTYLGGAAGRS [A10C] | 1.98 |
| KAASLARNLSKRRRTYLGGAAGRS [A10S] | 2.91 |
| KAASLARNLGKRRRTYLGGAAGRS [A10G] | 4.07 |
| KAASLARNLHKRRRTYLGGAAGRS [A10H] | 3.15 |
| KAASLARNLDKRRRTYLGGAAGRS [A10D] | 3.14 |
| KAASLARNLFKRRRTYLGGAAGRS [A10F] | 1.29 |
| KAASLARNLNKRRRTYLGGAAGRS [A10N] | 2.64 |
| KAASLARNLAKNRRTYLGGAAGRS [R12N] | 2.4 |

| Variant | protein stability index |
| --- | --- |
| KAASLARNLAKHRRTYLGGAAGRS [R12H] | 2.41 |
| KAASLARNLAKKRRTYLGGAAGRS [R12K] | 2.9 |
| KAASLARNLAKGRRTYLGGAAGRS [R12G] | 2.75 |
| KAASLARNLAKIRRTYLGGAAGRS [R12I] | 2.24 |
| KAASLARNLAKCRRTYLGGAAGRS [R12C] | 2.46 |
| KAASLARNLAKYRRTYLGGAAGRS [R12Y] | 1.18 |
| KAASLARNLAKFRRTYLGGAAGRS [R12F] | 1.68 |
| KAASLARNLAKQRRTYLGGAAGRS [R12Q] | 2.24 |
| KAASLARNLAKRRRTYHGGAAGRS [L17H] | 3.26 |
| KAASLARNLAKRRRTYEGGAAGRS [L17E] | 2.32 |
| KAASLARNLAKRRRTYYGGAAGRS [L17Y] | 3.3 |
| KAASLARNLAKRRRTYKGGAAGRS [L17K] | 4.17 |
| KAASLARNLAKRRRTYWGGAAGRS [L17W] | 1.69 |
| KAASLARNLAKRRRTYFGGAAGRS [L17F] | 2.05 |
| KAASLARNLAKRRRTYGGGAAGRS [L17G] | 2.66 |
| KAASLARNLAKRRRTYMGGAAGRS [L17M] | 2.64 |
| KAASLARNLAKRRRTYSGGAAGRS [L17S] | 2.75 |
| KAASLARNLAKRRRTYNGGAAGRS [L17N] | 3.18 |
| KAASLARNLAKRRRTYRGGAAGRS [L17R] | 3.44 |
| KAKSLARNLAKRRRTYLGGAAGRS [A3K] | 2.68 |
| KAESLARNLAKRRRTYLGGAAGRS [A3E] | 3.16 |
| KAHSLARNLAKRRRTYLGGAAGRS [A3H] | 3.48 |
| KAGSLARNLAKRRRTYLGGAAGRS [A3G] | 3.72 |
| KANSLARNLAKRRRTYLGGAAGRS [A3N] | 2.69 |

| Variant | protein stability index |
| --- | --- |
| KARSLARNLAKRRRTYLGGAAGRS [A3R] | 3.01 |
| KAYSLARNLAKRRRTYLGGAAGRS [A3Y] | 1.74 |
| KAPSLARNLAKRRRTYLGGAAGRS [A3P] | 3.96 |
| KAQSLARNLAKRRRTYLGGAAGRS [A3Q] | 3.71 |
| KAFSLARNLAKRRRTYLGGAAGRS [A3F] | 1.01 |
| KADSLARNLAKRRRTYLGGAAGRS [A3D] | 3.02 |
| HAASLARNLAKRRRTYLGGAAGRS [K1H] | 2.49 |
| GAASLARNLAKRRRTYLGGAAGRS [K1G] | 3.77 |
| TAASLARNLAKRRRTYLGGAAGRS [K1T] | 2.98 |
| WAASLARNLAKRRRTYLGGAAGRS [K1W] | 2.29 |
| CAASLARNLAKRRRTYLGGAAGRS [K1C] | 1.87 |
| FAASLARNLAKRRRTYLGGAAGRS [K1F] | 1.47 |
| AAASLARNLAKRRRTYLGGAAGRS [K1A] | 1.98 |
| KAASLARNLAKRRNTYLGGAAGRS [R14N] | 1.99 |
| KAASLARNLAKRRVTYLGGAAGRS [R14V] | 2.24 |
| KAASLARNLAKRRCTYLGGAAGRS [R14C] | 2.96 |
| KAASLARNLAKRRSTYLGGAAGRS [R14S] | 3.11 |
| KAASLARNLAKRRETYLGGAAGRS [R14E] | 2.66 |
| KAASLARNLAKRRQTYLGGAAGRS [R14Q] | 2.57 |
| KAASLARNLAKRRFTYLGGAAGRS [R14F] | 1.02 |
| KAASLARNLAKRRLTYLGGAAGRS [R14L] | 1.84 |
| KAASLARNLAKRRDTYLGGAAGRS [R14D] | 1.41 |
| KAASLARNLAKRRGTYLGGAAGRS [R14G] | 1.73 |
| KAACLARNLAKRRRTYLGGAAGRS [S4C] | 1.98 |

| Variant | protein stability index |
| --- | --- |
| KAAHLARNLAKRRRTYLGGAAGRS [S4H] | 2.32 |
| KAAWLARNLAKRRRTYLGGAAGRS [S4W] | 1.89 |
| KAARLARNLAKRRRTYLGGAAGRS [S4R] | 2.82 |
| KAAQLARNLAKRRRTYLGGAAGRS [S4Q] | 2.36 |
| KAADLARNLAKRRRTYLGGAAGRS [S4D] | 3.47 |
| KAAELARNLAKRRRTYLGGAAGRS [S4E] | 1.99 |
| KAAALARNLAKRRRTYLGGAAGRS [S4A] | 1.89 |
| KAAILARNLAKRRRTYLGGAAGRS [S4I] | 1.83 |
| KAANLARNLAKRRRTYLGGAAGRS [S4N] | 3.2 |
| KAAYLARNLAKRRRTYLGGAAGRS [S4Y] | 1.48 |
| KAAVLARNLAKRRRTYLGGAAGRS [S4V] | 2.36 |
| KAAGLARNLAKRRRTYLGGAAGRS [S4G] | 3.32 |
| KAASLGRNLAKRRRTYLGGAAGRS [A6G] | 3.27 |
| KAASLMRNLAKRRRTYLGGAAGRS [A6M] | 2.52 |
| KAASLPRNLAKRRRTYLGGAAGRS [A6P] | 3.94 |
| KAASLWRNLAKRRRTYLGGAAGRS [A6W] | 1.58 |
| KAASLCRNLAKRRRTYLGGAAGRS [A6C] | 1.06 |
| KAASLKRNLAKRRRTYLGGAAGRS [A6K] | 2.4 |
| KAASLYRNLAKRRRTYLGGAAGRS [A6Y] | 1.94 |
| KAASLSRNLAKRRRTYLGGAAGRS [A6S] | 3.07 |
| KAASLFRNLAKRRRTYLGGAAGRS [A6F] | 2.23 |
| KAASLRRNLAKRRRTYLGGAAGRS [A6R] | 2.56 |
